Results on 4 substances are retold here after patent CN101151278A.

One assay deals with 大鼠FcRn (rat) (UniProt P13599). Kind of assay: BIAcore, FcRn on CM5 chip. On the technique in general: SPR reads the build-up and loss of mass on a sensor chip optically.
Assay [1] concerns the target T1, CD20 on WIL2-S cells (human) (UniProt P11836).
T1 sequence (looked up): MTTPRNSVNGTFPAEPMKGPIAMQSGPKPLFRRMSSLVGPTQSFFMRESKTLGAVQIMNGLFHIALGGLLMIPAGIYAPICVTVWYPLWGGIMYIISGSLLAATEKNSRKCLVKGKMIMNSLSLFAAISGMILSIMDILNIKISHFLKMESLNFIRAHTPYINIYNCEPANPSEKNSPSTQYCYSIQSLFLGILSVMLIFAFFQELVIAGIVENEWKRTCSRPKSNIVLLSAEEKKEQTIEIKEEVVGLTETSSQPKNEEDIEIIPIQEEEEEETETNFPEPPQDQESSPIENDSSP
Kind of assay: cell-based or functional assay.

The next assay addresses 人FcRn (human) (UniProt P55899). Kind of assay: BIAcore, FcRn on CM5 chip, pH 6.0.

Chain of 人FcRn (human) (P55899 24-297 limits assumed, chain 1 of 2): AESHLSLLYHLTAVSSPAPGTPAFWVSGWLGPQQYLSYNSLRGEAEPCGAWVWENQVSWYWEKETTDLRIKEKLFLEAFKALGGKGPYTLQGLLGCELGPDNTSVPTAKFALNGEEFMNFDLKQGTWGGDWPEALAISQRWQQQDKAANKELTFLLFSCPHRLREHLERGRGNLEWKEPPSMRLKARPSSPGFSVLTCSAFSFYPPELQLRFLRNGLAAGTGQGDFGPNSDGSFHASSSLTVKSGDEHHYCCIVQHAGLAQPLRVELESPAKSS
Chain of 人FcRn (human) (P61769 21-119 limits assumed, chain 2 of 2, further chain): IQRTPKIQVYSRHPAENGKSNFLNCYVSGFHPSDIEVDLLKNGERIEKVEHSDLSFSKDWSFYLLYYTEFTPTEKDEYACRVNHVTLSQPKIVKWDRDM
Chain of 大鼠FcRn (rat) (P13599 23-298 limits assumed, chain 1 of 2): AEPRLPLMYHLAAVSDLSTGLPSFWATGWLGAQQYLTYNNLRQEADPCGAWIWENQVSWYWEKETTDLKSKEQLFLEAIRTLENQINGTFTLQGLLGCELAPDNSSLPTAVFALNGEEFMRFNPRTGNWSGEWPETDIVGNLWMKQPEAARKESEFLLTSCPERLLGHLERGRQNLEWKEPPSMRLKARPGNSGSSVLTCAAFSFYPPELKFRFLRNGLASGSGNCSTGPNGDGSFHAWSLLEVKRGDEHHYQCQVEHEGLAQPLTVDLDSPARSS
Chain of 大鼠FcRn (rat) (P07151 21-119 limits assumed, chain 2 of 2, further chain): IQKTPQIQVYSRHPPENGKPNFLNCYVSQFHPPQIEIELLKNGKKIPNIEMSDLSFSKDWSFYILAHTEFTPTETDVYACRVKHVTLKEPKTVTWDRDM

“Fc变体 N434W (from UniProt P01857 114-330)” had a fold increase in binding vs wild-type Fc with 大鼠FcRn (rat) of 10 fold.
Rituxan (antibody): in assay [1], the ADCC on WIL2-S cells with NK cells, EC50(变体)/EC50(2H7.v16) came out at 5.3; the ADCC on WIL2-S cells with NK cells, EC50(变体)/EC50(Rituxan) was 1; the CDC on WIL2-S cells, EC50(变体)/EC50(Rituxan) came out at 1.
“Fc变体 N434F (from UniProt P01857 114-330) (other; other documents disagree on this pair)” yielded a fold increase in affinity vs wild-type Fc with 人FcRn (human) of 9 fold.
Same read-out and setting: the figure for “Fc变体 N434A+E380A+T307A (from UniProt P01857 114-330) (other; other documents disagree on this pair)” is 14 fold.
